The values below come from paper PMC6294903 (Proceedings of the National Academy of Sciences of the …, 2018).

Experiment [1] concerns the target DnaJ-6His (Salmonella enterica serovar Typhimurium) (UniProt P0A1G7). Kind of experiment: MST.
In the next experiment the target is T1, DnaJ C268A (Salmonella enterica serovar Typhimurium, UniProt P0A1G7 1-379, C268A).
T1 sequence (looked up): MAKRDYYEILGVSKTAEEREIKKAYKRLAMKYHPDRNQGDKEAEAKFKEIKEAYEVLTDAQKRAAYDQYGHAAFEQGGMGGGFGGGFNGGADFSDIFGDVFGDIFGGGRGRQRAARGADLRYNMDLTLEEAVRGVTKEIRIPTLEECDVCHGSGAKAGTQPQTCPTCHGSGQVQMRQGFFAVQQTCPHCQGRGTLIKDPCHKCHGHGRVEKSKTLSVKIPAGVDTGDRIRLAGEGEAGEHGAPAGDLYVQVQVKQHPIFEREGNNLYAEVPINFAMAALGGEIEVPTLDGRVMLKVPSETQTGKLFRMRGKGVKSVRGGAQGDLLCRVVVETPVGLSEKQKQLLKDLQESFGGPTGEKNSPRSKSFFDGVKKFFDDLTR
The experiment can be described thus: pull-down.

The Kd is the concentration at which binding is half-saturated. Low readings indicate tighter binding, high ones weaker binding. For “oxidized DksA (recombinant, GST removed) (from UniProt P0A1G5 1-151) (natural protein)”, the Kd in experiment [1] came to 65 nM.

B1: GST-DksA (wild type, pull-down done in the absence of DTT) (natural protein, Salmonella enterica serovar Typhimurium, UniProt P0A1G5 1-151, looked up)
chain: MQEGQNRKTSSLSILAIAGVEPYQEKPGEEYMNEAQLSHFKRILEAWRNQLRDEVDRTVTHMQDEAANFPDPVDRAAQEEEFSLELRNRDRERKLIKKIEKTLKKVEDEDFGYCESCGVEIGIRRLEARPTADLCIDCKTLAEIREKQMAG
As for B1, in the experiment with DnaJ C268A, the binding result is listed as “binds”.
